Experiments:
FGFR3 [1] = molecular target: T1, FGFR3 (Homo sapiens, UniProt P22607); experiment: Affinity to FGFR3 measured by FACS; type: binding
FGFR3 [2] = molecular target: T1, FGFR3; experiment: FDCP-FGFR3 proliferation assay performed with FGF9; type: cell-based; conditions: dimeric dHLX format

T1 sequence (P22607 23-806): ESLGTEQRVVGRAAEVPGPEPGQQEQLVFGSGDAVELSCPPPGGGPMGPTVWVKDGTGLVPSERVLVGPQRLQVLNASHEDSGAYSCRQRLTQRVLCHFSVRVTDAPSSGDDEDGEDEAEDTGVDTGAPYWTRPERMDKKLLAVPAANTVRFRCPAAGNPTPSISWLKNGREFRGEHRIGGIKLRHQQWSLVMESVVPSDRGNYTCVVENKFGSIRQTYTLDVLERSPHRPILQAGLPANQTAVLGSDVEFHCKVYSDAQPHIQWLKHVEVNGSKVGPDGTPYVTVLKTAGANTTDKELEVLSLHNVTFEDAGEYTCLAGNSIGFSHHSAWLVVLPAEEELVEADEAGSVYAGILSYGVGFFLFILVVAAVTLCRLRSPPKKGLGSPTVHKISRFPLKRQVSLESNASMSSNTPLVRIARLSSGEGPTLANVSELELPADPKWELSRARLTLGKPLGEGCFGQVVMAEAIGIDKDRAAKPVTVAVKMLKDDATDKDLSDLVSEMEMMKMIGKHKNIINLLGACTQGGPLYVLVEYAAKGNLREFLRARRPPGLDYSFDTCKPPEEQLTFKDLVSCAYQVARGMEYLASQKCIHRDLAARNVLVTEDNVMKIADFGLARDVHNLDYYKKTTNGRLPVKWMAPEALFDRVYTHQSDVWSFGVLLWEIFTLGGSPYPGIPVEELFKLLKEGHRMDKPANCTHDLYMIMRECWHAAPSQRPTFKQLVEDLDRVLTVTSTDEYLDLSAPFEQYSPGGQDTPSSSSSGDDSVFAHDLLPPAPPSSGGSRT

B1: PRO-026: HuCAL clone anti-FGFR3 antibody; VH-CDR3 SEQ ID NO:6, VL-CDR3 SEQ ID NO:15 (antibody, V domains shown)
VH: QVQLVQSGAEVKKPGASVKVSCKASGYTFTSYYMHWVRQAPGQGLEWMGWINPNSGGTNYAQKFQGRVTMTRDTSISTAYMELSSLRSEDTAVYYCARGYWYAYFTYINYGYFDNWGQGTLVTVSS
VL: DIALTQPASVSGSPGQSITISCTGTSSDVGGYNYVSWYQQHPGKAPKLMIYDVSNRPSGVSNRFSGSKSGNTASLTISGLQAEDEADYYCQSYDNNSDVVFGGGTKLTVLGQ
**Q.** For B1, which Kd (FGFR3 [1]) is on record?
**A.** 1.4 nM

**Q.** And the IC50 (FGFR3 [2])?
**A.** 70 nM

B2: PRO-055: HuCAL clone anti-FGFR3 antibody; VH-CDR3 SEQ ID NO:9, VL-CDR3 SEQ ID NO:18 (antibody, V domains shown)
VH: QVQLVQSGAEVKKPGASVKVSCKASGYTFTSYYMHWVRQAPGQGLEWMGWINPNSGGTNYAQKFQGRVTMTRDTSISTAYMELSSLRSEDTAVYYCARSMNSTMYWYLRRVLFDHWGQGTLVTVSS
VL: DIALTQPASVSGSPGQSITISCTGTSSDVGGYNYVSWYQQHPGKAPKLMIYDVSNRPSGVSNRFSGSKSGNTASLTISGLQAEDEADYYCQSYDMYNYIVFGGGTKLTVLGQ
**Q.** B2 was tested. Which IC50 (FGFR3 [2]) did it give?
**A.** 34 nM

B3: PRO-002: HuCAL clone anti-FGFR3 antibody; VH-CDR3 SEQ ID NO:2, VL-CDR3 SEQ ID NO:11 (antibody, V domains shown)
VH: QVQLVQSGAEVKKPGASVKVSCKASGYTFTSYYMHWVRQAPGQGLEWMGWINPNSGGTNYAQKFQGRVTMTRDTSISTAYMELSSLRSEDTAVYYCARDFLGYEFDYWGQGTLVTVSS
VL: DIELTQPPSVSVAPGQTARISCSGDALGDKYASWYQQKPGQAPVLVIYDDSDRPSGIPERFSGSNSGNTATLTISGTQAEDEADYYCQSYDYSADYVFGGGTKLTVLGQ
**Q.** Which Kd (FGFR3 [1]) does the source give for B3 here?
**A.** 43 nM

**Q.** And the IC50 (FGFR3 [2])?
**A.** 360 nM

B4: PRO-001: HuCAL clone anti-FGFR3 antibody; VH-CDR3 SEQ ID NO:1, VL-CDR3 SEQ ID NO:10; VH SEQ ID NO:19, VL SEQ ID NO:28 (antibody, V domains shown)
VH: QVQLQQSGPGLVKPSQTLSLTCAISGDSVSSNSAAWNWIRQSPGRGLEWLGRTYYRSKWYNDYAVSVKSRITINPDTSKNQFSLQLNSVTPEDTAVYYCARSYYPDFDYWGQGTLVTVSS
VL: DIELTQPPSVSVAPGQTARISCSGDALGDKYASWYQQKPGQAPVLVIYDDSDRPSGIPERFSGSNSGNTATLTISGTQAEDEADYYCQSYDGPDLWVFGGGTKLTVLGQ
modifications: SEQUENCE FROM PHAGE LIBRARY
**Q.** How did the Kd (FGFR3 [1]) turn out when B4 was run?
**A.** 0.7 nM

**Q.** What about the IC50 (FGFR3 [2]) of the same molecule?
**A.** 19 nM

B5: PRO-054: HuCAL clone anti-FGFR3 antibody; VH-CDR3 SEQ ID NO:8, VL-CDR3 SEQ ID NO:17 (antibody, V domains shown)
VH: QVQLVQSGAEVKKPGASVKVSCKASGYTFTSYYMHWVRQAPGQGLEWMGWINPNSGGTNYAQKFQGRVTMTRDTSISTAYMELSSLRSEDTAVYYCARNMAYTNYQYVNMPHFDYWGQGTLVTVSS
VL: DIELTQPPSVSVAPGQTARISCSGDALGDKYASWYQQKPGQAPVLVIYDDSDRPSGIPERFSGSNSGNTATLTISGTQAEDEADYYCQSYDYFKLVFGGGTKLTVLGQ
**Q.** B5 was tested. Which IC50 (FGFR3 [2]) did it give?
**A.** 45 nM

B6: PRO-029: HuCAL clone anti-FGFR3 antibody; VH-CDR3 SEQ ID NO:7, VL-CDR3 SEQ ID NO:16 (antibody, V domains shown)
VH: QVQLVQSGAEVKKPGASVKVSCKASGYTFTSYYMHWVRQAPGQGLEWMGWINPNSGGTNYAQKFQGRVTMTRDTSISTAYMELSSLRSEDTAVYYCARTWQYSYFYYLDGGYYFDIWGQGTLVTVSS
VL: DIVLTQSPATLSLSPGERATLSCRASQSVSSSYLAWYQQKPGQAPRLLIYGASSRATGVPARFSGSGSGTDFTLTISSLEPEDFATYYCQQTNNAPVTFGQGTKVEIKRT
**Q.** Which results are given for B6?
**A.** Kd (FGFR3 [1]): < 1 nM; IC50 (FGFR3 [2]): 20 nM

From US20080044419A1, “Treatment of T Cell Mediated Diseases by Inhibition of Fgfr3” (Fibron Ltd., priority 2003, published 2008)
